Our source for the EC50 and Kd values is patent US20110268740A1 (INTERCELL, published 2011).

The target of test [1] is T1, M2e (SEQ ID NO:48) conjugated to RNAse A (Influenza A virus (consensus of H1, H2 …)). As to the kind of experiment: ELISA, apparent affinity, purified scFv-msFcγ2c on immobilised RNAse A-M2e. (In general: In an ELISA, binding on a coated surface is turned into a signal by an enzyme label.)
Test [2] deals with T1, M2e (SEQ ID NO:48) conjugated to RNAse A.

B1: scFv-E040-msFcγ2c (Fc fusion)
chain: DADPAQAAELVMTQSPDSLAVSLGERATINCKSSQSVLYSSNNENYLAWYQQKPGQPPKLLIYWASTRESGVPDRFSGSGSGTDFTLTINSVQAEDVAVYYCQQYFMTPITFGQGTRLEIKGGSSRSSSSGGGGSGGGGEVQLLESGGALVQPGRSLRLSCRTSGLNFGDYPINWVRQAPGKGLEWVGFIKSKSYGVTTEFAASVEGRFTISRDDSRGIAYLQMNSLKTEDTAVYYCTSSSGFLYYFDYWGQGTLVTVSSASTKGPSVTSGQAGRKLEPRVPITQNPCPPLKECPPCAAPDLLGGPSVFIFPPKIKDVLMISLSPMVTCVVVDVSEDDPDVQISWFVNNVEVHTAQTQTHREDYNSTLRVVSALPIQHQDWMSGKEFKCKVNNRALPSPIEKTISKPRGPVRAPQVYVLPPPAEEMTKKEFSLTCMITGFLPAEIAVDWTSNGRTEQNYKNTATVLDSDGSYFMYSKLRVQKSTWERGSLFACSVVHEGLHNHLTTKTISRSLGK
Regarding B1, the EC50 (as a rule, the midpoint of the concentration-response curve) in test [1] stood at 0.0883 nM. The affinity in test [2], expressed as Kd, was 0.013 nM.

B2: scFv-F052-msFcγ2c (Fc fusion)
chain: DADPAQAAERVMTQSPDALAVSLGERATINCKSSQSLLYSSNNKNYLAWYQKKPGQPPKLLIYWASTRESGVPDRFSGSGSGTEFTLTINSVQAEDVAVYYCQQYFMTPITFGQGTKLEIKGGSSRSSSSGGGGSGGGGQVQLQESGGALVQPGRSLRLSCRTSGLNFGDYPINWVRQAPGKGLEWVGFIKSKSYGVTTEFAASVEGRFTISRDDSRGIAYLQMNSLKTEDTAVYYCTSSSGFLYYFDYWGQGTLVTVSSASTKGPSVTSGQAGRKLEPRVPITQNPCPPLKECPPCAAPDLLGGPSVFIFPPKIKDVLMISLSPMVTCVVVDVSEDDPDVQISWFVNNVEVHTAQTQTHREDYNSTLRVVSALPIQHQDWMSGKEFKCKVNNRALPSPIEKTISKPRGPVRAPQVYVLPPPAEEMTKKEFSLTCMITGFLPAEIAVDWTSNGRTEQNYKNTATVLDSDGSYFMYSKLRVQKSTWERGSLFACSVVHEGLHNHLTTKTISRSLGK
For B2, the EC50 in test [1] turned out to be 0.0506 nM. Moreover, binding in test [2] was put at a Kd of 0.006 nM.

B3: scFv-D005-msFcγ2c (Fc fusion)
chain: DADPAQAAELVMTQSPDSLAVSLGERATINCKSSQSVLYTSNNKNYLGWYQQKPGQPPNLLIYWASTRESGVPDRFSGSGSGTDFTLTINSVQAEDVAVYYCQQYFMTPITFGQGTRLEIKGGSSRSSSSGGGGSGGGGEVQLVESGGALVQPGRSLRLSCRTSGLNFGDYPINWVRQAPGKGLEWVGFIKSKSYGVTTEFAASVEGRFTISRDDSRGIAYLQMNSLKTEDTAVYYCTSSSGFLYYFDYWGQGTLVTVSSASTKGPSVTSGQAGRKLEPRVPITQNPCPPLKECPPCAAPDLLGGPSVFIFPPKIKDVLMISLSPMVTCVVVDVSEDDPDVQISWFVNNVEVHTAQTQTHREDYNSTLRVVSALPIQHQDWMSGKEFKCKVNNRALPSPIEKTISKPRGPVRAPQVYVLPPPAEEMTKKEFSLTCMITGFLPAEIAVDWTSNGRTEQNYKNTATVLDSDGSYFMYSKLRVQKSTWERGSLFACSVVHEGLHNHLTTKTISRSLGK
Consider B3, for which, in test [1], the concentration for a half-maximal effect (EC50) came to 0.0815 nM. Besides, the Kd – broadly, the constant that tells how readily two partners part at equilibrium – in test [2] worked out at 0.004 nM.
